Here are results for one molecule from paper PMC10515946 (bioRxiv, 2023).

The experiment concerns the target soluble monomeric 1059 gp120 (HIV-1 clone 1059_09.A4.1460 (clade B …, strain)). Kind of experiment: ELISA.

B1: N6 (CD4-binding site broadly neutralizing antibody) (antibody, V domains shown)
VH: RAHLVQSGTAMKKPGASVRVSCQTSGYTFTAHILFWFRQAPGRGLEWVGWIKPQYGAVNFGGGFRDRVTLTRDVYREIAYMDIRGLKPDDTAVYYCARDRSYGDSSWALDAWGQGTTVVVSA
VL: YIHVTQSPSSLSVSIGDRVTINCQTSQGVGSDLHWYQHKPGRAPKLLIHHTSSVEDGVPSRFSGSGFHTSFNLTISDLQADDIATYYCQVLQFFGRGSRLHIK
Take B1: the binding result is on record as “binds”.
